From paper PMC8441738 (MedComm, 2021) come the findings set out here.

The test has as its target recombinant SARS-CoV-2 RBD-Fc (Severe acute respiratory syndrome …, UniProt P0DTC2). Description: ELISA; natural RBD-Fc immobilised on ELISA plates. A general note: An ELISA detects its analyte on a solid surface through an enzyme-linked reagent.

B1: MA1 monoclonal antibody (antibody, V domains shown)
VH: QVQLKESGPGLVAPSQSLSITCTVSGFSLSDYSISWIRQPPGKGLEWLGVIWGGGSTYYNSALKSRLSISKDNSKSQVFLKMNSLQTDDTAMYYCAKHPLYYGSNSDGYYAMDYWGQGTSVTVSS
VL: DIVMTQSHKFMSTSVGDRVSITCKASQDVGIVVAWYQQKPGQSPKLLIYWASTRHTGVPDRFTGSGSGTDFTLTISNVQSEDLADYFCQQYSSYPLTFGGGTKLEIK
notes: also called group I mAb; source: hybridoma cell line or transfection of linear expression cassettes
For B1, the binding result is recorded as “binds”.

B2: MA5 monoclonal antibody (antibody, V domains shown)
VH: EVMLVESGGGLVKPGGSLKLSCAASGFMFSRYAMSWVRQTPEKRLEWVATISSGGSYTYYPDSVKGRFTMSRDNAKNTLYLQMSSLRSEDTAMYNCARHDGNYVDYAMDYWGQGTSVTVSS
VL: QIVLTQSPAIMSASLGEEITLTCSASSSVSHMHWYQQKSGTSPKLLIYSTFNLASGVPSRFSGSGSGTFYSLTISSVEAEDAADYYCHQWSSWTFGGGTKLEIK
notes: also called group IV mAb; source: hybridoma cell line or transfection of linear expression cassettes
In the case of B2, the binding result is “binds”.
